Tests used:
[1] = molecular target: human TGFβ2 (transforming growth factor beta 2) (human) (UniProt P61812); assay: A549 cell radioreceptor assay, inhibition of 125I-TGFβ2 binding to receptors
[2] = molecular target: TGFβ3 (transforming growth factor beta 3) (UniProt P10600); assay: A549 cell radioreceptor assay, inhibition of 125I-TGFβ3 binding to receptors
[3] = molecular target: human TGFβ1 (transforming growth factor beta 1) (human) (UniProt P01137); assay: A549 cell radioreceptor assay, inhibition of 125I-TGFβ1 binding to receptors
Sequence of human TGFβ1 (transforming growth factor beta 1) (human) (P01137 279-390 limits assumed): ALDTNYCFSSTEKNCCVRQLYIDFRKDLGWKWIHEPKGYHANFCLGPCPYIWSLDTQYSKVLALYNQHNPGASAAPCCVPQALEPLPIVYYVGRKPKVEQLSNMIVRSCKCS

[4] = molecular target: human TGFβ1 (transforming growth factor beta 1) (human) (UniProt P01137); assay: cell-based or functional assay
[5] = molecular target: TGFβ3 (transforming growth factor beta 3) (UniProt P10600); assay: cell-based or functional assay
[6] = molecular target: human TGFβ2 (transforming growth factor beta 2) (human) (UniProt P61812); assay: cell-based or functional assay

Sequence of human TGFβ2 (transforming growth factor beta 2) (human) (P61812 303-414): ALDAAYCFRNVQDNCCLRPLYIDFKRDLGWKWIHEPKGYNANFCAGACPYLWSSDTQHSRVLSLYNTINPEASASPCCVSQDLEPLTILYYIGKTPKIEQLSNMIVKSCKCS
Sequence of TGFβ3 (transforming growth factor beta 3) (P10600 301-412 limits assumed): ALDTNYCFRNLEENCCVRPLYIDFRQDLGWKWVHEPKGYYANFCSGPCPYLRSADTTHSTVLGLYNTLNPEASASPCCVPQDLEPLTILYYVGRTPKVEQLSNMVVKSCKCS

IC50 [1]: 500 pM
IC50 [2]: 30 pM
IC50 [3]: 550 pM
TF1 cell proliferation assay IC50 (nM IgG) [4]: 1.5 nM
TF1 cell proliferation assay IC50 (nM IgG) [5]: 0.1 nM
TF1 cell proliferation assay IC50 (nM IgG) [6]: 10 nM
Substance: mouse monoclonal antibody from Genzyme (Mouse anti-TGF β1,2,3; J.R. Dasch et al.)
